Source: publication PMC5076532, “The Vesicle Priming Factor CAPS Functions as a Homodimer via C2 Domain Interactions to Promote Regulated Vesicle Exocytosis*” (The Journal of Biological Chemistry, 2016)

Legend:
[1] = biological target: the molecule itself; experiment: native gel or EMSA; blue native (BN-PAGE, 5-14% or 6-14%) or clear native (CN-PAGE, 6%, 4 °C) gels of purified soluble protein without lipid; Coomassie or Western blot (CAPS or Myc antibody); 20 mM HEPES, 10 mM NaCl, 10 mM imidazole, 5% glycerol, pH 7.4 for CN-PAGE
[2] = biological target: the molecule itself; experiment: atomic force microscopy (volume analysis); 100 pM CAPS dried onto freshly cleaved mica
[3] = biological target: the molecule itself; experiment: cell-based or functional assay
[4] = biological target: the molecule itself; experiment: native gel or EMSA; BN-PAGE of 5 μg of purified protein incubated with 1.5 μg of PI(4,5)P2 (micelles) for 0-30 min

B1: CAPS(G476E)-Myc-His (natural protein)
chain: not shown
notes: CAPS, Rattus norvegicus, NP_037351.1, point mutant made on pcDNA3.1 CAPS-Myc-His; also called counterpart of unc-31(e714); source: HEK293-FT, transfected, purified as Myc-His fusion protein
B1: binds [1].

B2: CAPS-Myc-His (recombinant wild-type rat CAPS) (natural protein)
chain: not shown
notes: the CAPS ORF in pcDNA3.1 CAPS-Myc-His; the words 'full length' are used only for the antigen of the antibody; also called CAPS-1; CADPS; source: HEK293-FT, transfected (calcium phosphate), purified (nickel-nitrilotriacetic acid column)
With B2 the “stoichiometry N” value [2] was 2 and the “Ca2+-dependent norepinephrine secretion from permeable PC12 cells: activity of bound CAPS-Myc-His (exclusively dimer) after wash, relative to added CAPS-Myc-His” value [3] was roughly 50%.

B3: CAPS(ΔC2)-Myc-His (natural protein)
chain: not shown
notes: CAPS, Rattus norvegicus, NP_037351.1; amino acids 400-516 deleted from the CAPS ORF, residue 399 directly fused to residue 517; also called ΔC2-CAPS; source: HEK293-FT, transfected, purified as Myc-His fusion protein
B3: binds [4].
